Source: patent US8722052B2, “Vaccinia virus protein A46 peptide and use thereof” (priority 2008, dated 2014)
Entries after “also recorded” stand apart in the source; their conditions may differ.

Columns and labels:
THP-1 cells = assay: MTT cell viability assay, THP-1; type: cell-based, human; settings: peptide 5 and 10 μM, 10 ng/ml LPS
Procedure: FIGS. 7A and B are bar charts showing the effect of A464 on TNFα production and cell viability of human THP-1 cells stimulated with LPS. Cells were seeded in 96 well plates (3×10^5 cells/ml) and differentiated with 200 nM PMA for 24 hours before treatment. A464 (SEQ ID NO. 20) was added to the cells at a concentration of 5 or 10 μM 1 hour before stimulating with 10 ng/ml LPS. Supernatants were collected 6 hours after stimulation and assayed for TNFα by ELISA (A) and cells were assayed for viability by the MTT assay (B.). No peptides were added to the control wells (black bars). Data is representative of at least three experiments each performed in triplicate and is expressed as mean±s.d;
FIGS. 9A and B are bar charts showing the effect of A464 on Pam3CysK4-induced TNFα in human THP-1 cells. Cells were seeded in 96 well plates (3×10^5 cells/ml) and differentiated with 200 nM PMA for 24 hours before treatment. […] Data is representative of at least three experiments each performed in triplicate and is expressed as mean±s.d;
Cell viability was measured by assessing mitochondrial function using an MTT (3-(4,5-Dimethylthiazol-2-yl)-2,5-diphenyltetrazolium bromide) assay. […] MTT was then removed and 200 μl per well of dimethyl sulphoxide (DMSO) was added and cells incubated for 20 min at 37° C. in the dark, prior to absorbance being read at 595 nm on a spectrophotometer.

TLR3 = target: T1, TLR3 (Homo sapiens, UniProt O15455); assay: poly(I:C)-induced NFκB / ISRE luciferase reporter assay in HEK293_TLR3 cells; type: cell-based; settings: peptide 2, 5 or 10 μM, 25 μg/ml poly(I:C), 6 h
T1 construct: expressed in transfected cells
Procedure: FIGS. 11A and B are bar charts showing the effect of A464 and scrambled A464 (ConA464) on poly(I:C)-induced TLR3 signalling in HEK293 cells. HEK293_TLR3 cells were seeded in 96 well plates (1.5×10^5 cells/ml) 24 hours before transfection with the plasmid DNA. Cells were transfected with 60 ng of either ISRE-Luciferase (A) or NFκB-Luciferase (B) and 20 ng of TK-Renilla reporter gene plasmids. The total volume of plasmid DNA transfected into the cells was made up to 230 ng by adding pcDNA.
Scrambled A464 (ConA464) (SEQ ID NO. 32) and A464 (SEQ ID NO. 20) peptides were added to the cells at a concentration of 2, 5 or 10 μM the next day and cells were stimulated with 25 μg/ml poly(I:C) 1 hour after treatment with the peptide. Cells were harvested and reporter gene assays performed 6 hr after stimulation with the agonist. No peptides were added to the control wells (black bars). Data is representative of at least three experiments each performed in triplicate. Data are expressed as mean fold induction±s.d. relative to control levels;
FIGS. 20A and B are bar charts showing the effect of shortened A464 peptides with deletions of N- and C-terminal amino acids on TLR4- and TLR3-induced NFκB activation in HEK293 cells. HEK293_TLR4 (A) and HEK293_TLR3 (B) cells were seeded in 96 well plates (1.5×10^5 cells/ml) 24 hours before transfection with the plasmid DNA. Cells were transfected with 60 ng NFκB-Luciferase and 20 ng of TK-Renilla reporter genes, as in FIG. 11. A464N-2 (SEQ ID NO. 41) and A464C-3 (SEQ ID NO. 42) peptides were added to the cells at a concentration of 1, 5 or 25 μM the next day and cells were stimulated with either 10 ng/ml LPS (A) or 25 μg/ml Poly(I:C) (B) 1 hour after treatment with peptides. Cells were harvested and assayed for NFκB activation by reporter gene assay 6 hours after stimulation with the agonists. No peptides were added to the control wells (black bars). Data is representative of three experiments each performed in triplicate and is expressed as mean fold induction±s.d. relative to control levels;
HEK293 cells were transfected using GeneJuice® a proprietary non-toxic transfection reagent. 200 μl/well cells at a density of 1×10^5 cells/ml were seeded the day before transfection. 0.8 μl of GeneJuice was mixed with 9.2 μl of serum-free DMEM (SFM) per transfection and incubated for 5 min at room temperature before adding the appropriate amount of the plasmid DNA. The GeneJuice/SFM/DNA mixture was then incubated at room temperature for 15 min before adding to the cells. 10 μl per well of the GeneJuice/SMF/DNA mixture was added to the cells in triplicate and the cells were allowed to recover for 18-20 hours before stimulation. […]

Question: For KYSFKLILAEYRRRRRRRRR [Peptide A464], which “cytotoxicity (MTT)” value (THP-1 cells) is on record?
Answer: Its value is “no cytotoxicity”.

Question: What about the “inhibition of TLR3-mediated ISRE induction” value (TLR3) of the same sequence?
Answer: The value was “slightly enhanced; also recorded: insensitive to inhibition”.

Question: What about the “inhibition of TLR3-mediated NFκB activation” value (TLR3) of the same sequence?
Answer: The value was “insensitive to inhibition; also recorded: slightly enhanced”.
